Laboratory results from patent US20170267766A1.

Columns and labels:
[1] = molecular target: soluble recombinant human IGF-1R hetero-tetramere with C-terminal 10-His tag (R&D Systems 305-GR) (human) (UniProt P08069); experiment: SPR Biacore X100, His-captured h-IGF-1R ~600 RU, mean of 4
[2] = molecular target: soluble recombinant human IGF-1R hetero-tetramere with C-terminal 10-His tag (R&D Systems 305-GR) (human) (UniProt P08069); experiment: SPR Biacore X100, Ln(2)/koff, mean of 4
[3] = molecular target: human IGF-1R (native, on cells) (human) (UniProt P08069); experiment: FACS titration, MCF-7
[4] = molecular target: human IGF-1R (native, on cells) (human) (UniProt P08069); experiment: FACS on MCF-7 cells, 4°C; inset table, axis log [M] (Table 14b prints it rounded as 7.09E-10)
[5] = molecular target: monkey IGF-1R (on COS-7 cells) (African green monkey); experiment: FACS titration, Cos-7
[6] = molecular target: human IGF-1R (native, on cells) (human) (UniProt P08069); experiment: cell-based or functional assay
[7] = molecular target: monkey IGF-1R (on COS-7 cells) (African green monkey); experiment: FACS on COS-7 cells, 4°C; inset table, axis log [M] (Table 14b prints it rounded as 5.1E-10)

B1: hz208F2 H026/L024 (antibody, from a related filing, V domains shown)
VH: QVQLVQSGAEVKKPGASVKMSCKASGYTFTSYYIYWVKQAPGQGLEWLGWIWPGDGSTKYNEKFQGRVTLTADKSSNTAYMFLSSLRSEDTAVYFCASPMITPNYAMDYWGQGTLVTVSS
VL: DIQMTQSPSSLSASVGDRVTISCRASQDISKYLNWYQQKPGKAPKLLIYYTSRLHSGVPSRFSGRGSGTDYSLTISNLQPEDFATYFCQQGSTLPYTFGGGTKVEIKR
Binder B1 has a Kd [1] of 0.06 nM, a half-life of the complex [2] of 2 to 3 h and an EC50 [3] of 0.709 nM. For the same binder, the EC50 [4] was 0.71 nM, the EC50 [5] was 0.51 nM and the % internalization [6] was 87%. The ΔMFI (MCF-7, 10 µg/ml, 4 h) [6] was 344 MFI and the EC50 [7] was 0.511 nM.
